Assay results from patent US12338277.

Tests used:
Assay in all cases: cell-based or functional assay
[1] = molecular target: HIV-1 Env of pseudovirus 1054_07_TC4_1499 (HIV-1)
[2] = molecular target: HIV-1 Env of pseudovirus YU-2 (HIV-1) (UniProt P35961)
[3] = molecular target: HIV-1 Env of pseudovirus BF1266.431a (HIV-1)
[4] = molecular target: HIV-1 Env of pseudovirus CNE5 (HIV-1)
[5] = molecular target: HIV-1 Env of pseudovirus 62357_14_03_4589 (HIV-1)
[6] = molecular target: HIV-1 Env of pseudovirus P1981_C5_3 (HIV-1)
[7] = molecular target: HIV-1 envelope of pseudovirus CAP45.2.00.G3 (HIV-1)
[8] = molecular target: HIV-1 envelope of pseudovirus X2088_c9 (HIV-1)
[9] = molecular target: HIV-1 Env of pseudovirus MS208.A1 (HIV-1)
[10] = molecular target: HIV-1 envelope of pseudovirus 6952.v1.c20 (HIV-1)
[11] = molecular target: HIV-1 envelope of pseudovirus CAAN5342.A2 (HIV-1)
[12] = molecular target: HIV-1 Env of pseudovirus 3817.v2.c59 (HIV-1)
[13] = molecular target: HIV-1 envelope of pseudovirus 620345.c01 (HIV-1)
[14] = molecular target: HIV-1 envelope of pseudovirus Du172.17 (HIV-1)
[15] = molecular target: HIV-1 envelope of pseudovirus C4118.c09 (HIV-1)
[16] = molecular target: HIV-1 envelope of pseudovirus Ce1172_H1 (HIV-1)
[17] = molecular target: HIV-1 Env of pseudovirus CNE30 (HIV-1)
[18] = molecular target: HIV-1 Env of pseudovirus Ce0393_C3 (HIV-1)
[19] = molecular target: HIV-1 envelope of pseudovirus 1394C9G1(Rev-) (HIV-1)
[20] = molecular target: HIV-1 envelope of pseudovirus X2131_C1_85 (HIV-1)
[21] = molecular target: HIV-1 Env of pseudovirus CNE52 (HIV-1)
[22] = molecular target: HIV-1 envelope of pseudovirus 249M B10 (HIV-1)
[23] = molecular target: HIV-1 envelope of pseudovirus 0815.v3.c3 (HIV-1)
[24] = molecular target: HIV-1 envelope glycoprotein of pseudovirus BJOX009000.02.4 (clade CRF01_AE) (HIV-1)
[25] = molecular target: HIV-1 envelope glycoprotein of pseudovirus ZM214M.PL15 (clade C) (HIV-1)
[26] = molecular target: HIV-1 envelope glycoprotein of pseudovirus HIV-16055-2.3 (clade C) (HIV-1)
[27] = molecular target: HIV-1 envelope glycoprotein of pseudovirus 1054_07_TC4_1499 (clade B (T/F)) (HIV-1)
[28] = molecular target: HIV-1 envelope glycoprotein of pseudovirus CAP45.2.00.G3 (clade C) (HIV-1)
[29] = molecular target: HIV-1 envelope glycoprotein of pseudovirus TRJO4551.58 (clade B) (HIV-1)
[30] = molecular target: HIV-1 envelope glycoprotein of pseudovirus A07412m1.vrv12 (clade D) (HIV-1)
[31] = molecular target: HIV-1 envelope glycoprotein of pseudovirus 235-47 (clade CRF02_AG) (HIV-1)
[32] = molecular target: HIV-1 envelope glycoprotein of pseudovirus ZM233M.PB6 (clade C) (HIV-1)
[33] = molecular target: HIV-1 envelope glycoprotein of pseudovirus CNE17 (clade BC) (HIV-1)
[34] = molecular target: HIV-1 envelope glycoprotein of pseudovirus 263-8 (clade CRF02_AG) (HIV-1)
[35] = molecular target: HIV-1 envelope glycoprotein of pseudovirus CNE58 (clade BC) (HIV-1)
[36] = molecular target: HIV-1 envelope glycoprotein of pseudovirus X1254_c3 (clade G) (HIV-1)
[37] = molecular target: HIV-1 envelope glycoprotein of pseudovirus X1193 c1 (clade G) (HIV-1)
[38] = molecular target: HIV-1 envelope glycoprotein of pseudovirus Ce1172_H1 (clade C (T/F)) (HIV-1)
[39] = molecular target: HIV-1 envelope glycoprotein of pseudovirus 928-28 (clade CRF02_AG) (HIV-1)
[40] = molecular target: HIV-1 envelope glycoprotein of pseudovirus T278-50 (clade CRF02 AG) (HIV-1)
[41] = molecular target: HIV-1 envelope glycoprotein of pseudovirus QH0692.42 (clade B) (HIV-1)
[42] = molecular target: HIV-1 envelope glycoprotein of pseudovirus Q842.d12 (clade A) (HIV-1)
[43] = molecular target: HIV-1 envelope glycoprotein of pseudovirus 3817.v2.c59 (clade CD) (HIV-1)
[44] = molecular target: HIV-1 envelope glycoprotein of pseudovirus CNE19 (clade BC) (HIV-1)
[45] = molecular target: HIV-1 envelope glycoprotein of pseudovirus 3365.v2.c2 (clade A) (HIV-1)
[46] = molecular target: HIV-1 envelope glycoprotein of pseudovirus 0260.v5.c36 (clade A) (HIV-1)
[47] = molecular target: HIV-1 envelope glycoprotein of pseudovirus WITO4160.33 (clade B) (HIV-1)

Chain of 10-996 (antibody) (VH): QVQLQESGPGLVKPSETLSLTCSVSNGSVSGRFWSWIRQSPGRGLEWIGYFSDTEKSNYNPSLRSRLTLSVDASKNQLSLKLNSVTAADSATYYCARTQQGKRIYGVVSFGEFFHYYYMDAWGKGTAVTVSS
Chain of 10-996 (antibody) (VL): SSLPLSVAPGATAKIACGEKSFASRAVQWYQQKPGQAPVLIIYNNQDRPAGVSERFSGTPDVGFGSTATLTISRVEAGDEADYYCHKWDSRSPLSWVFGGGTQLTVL
Chain of 10-1074 (antibody) (VH): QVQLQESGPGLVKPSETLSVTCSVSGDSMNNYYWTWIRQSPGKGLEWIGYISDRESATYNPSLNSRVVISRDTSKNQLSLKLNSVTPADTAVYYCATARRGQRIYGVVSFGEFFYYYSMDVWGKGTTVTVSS
Chain of 10-1074 (antibody) (V domain): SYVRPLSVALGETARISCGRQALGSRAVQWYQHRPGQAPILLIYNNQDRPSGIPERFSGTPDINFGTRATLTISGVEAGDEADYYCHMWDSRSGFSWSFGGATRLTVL
Chain of HIV-1 Env of pseudovirus YU-2 (HIV-1) (P35961 32-843 limits assumed): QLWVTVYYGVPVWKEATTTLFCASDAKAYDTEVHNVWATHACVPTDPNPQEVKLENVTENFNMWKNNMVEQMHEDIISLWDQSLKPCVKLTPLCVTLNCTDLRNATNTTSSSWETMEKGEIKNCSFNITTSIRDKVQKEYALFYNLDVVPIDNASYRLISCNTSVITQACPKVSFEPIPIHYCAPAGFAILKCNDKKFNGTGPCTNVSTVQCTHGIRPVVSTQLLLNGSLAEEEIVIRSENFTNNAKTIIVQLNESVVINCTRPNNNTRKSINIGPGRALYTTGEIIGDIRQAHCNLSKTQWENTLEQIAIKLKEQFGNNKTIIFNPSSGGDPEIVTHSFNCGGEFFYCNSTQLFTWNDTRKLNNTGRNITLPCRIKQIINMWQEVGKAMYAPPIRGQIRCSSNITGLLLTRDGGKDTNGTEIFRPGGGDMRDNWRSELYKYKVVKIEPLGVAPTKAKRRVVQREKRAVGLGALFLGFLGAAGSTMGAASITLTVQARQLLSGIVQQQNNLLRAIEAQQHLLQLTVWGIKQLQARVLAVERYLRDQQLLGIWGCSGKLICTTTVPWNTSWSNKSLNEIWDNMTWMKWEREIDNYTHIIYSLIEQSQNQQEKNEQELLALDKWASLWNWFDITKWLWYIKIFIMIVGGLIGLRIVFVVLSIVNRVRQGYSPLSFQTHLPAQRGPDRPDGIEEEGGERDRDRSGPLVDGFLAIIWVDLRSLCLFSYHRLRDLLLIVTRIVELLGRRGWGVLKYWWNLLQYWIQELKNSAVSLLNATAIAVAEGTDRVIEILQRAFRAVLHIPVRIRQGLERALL

10-996 (antibody)
IC80 (TZM-bl neutralization) [1]: 0.901 mg/L
IC80 (TZM-bl neutralization) [2]: 0.891 mg/L
IC80 (TZM-bl neutralization) [3]: > 50 mg/L
IC80 (TZM-bl neutralization) [4]: > 50 mg/L
IC80 (TZM-bl neutralization) [5]: > 50 mg/L
IC80 (TZM-bl neutralization) [6]: 0.018 mg/L
IC50 (TZM-bl neutralization) [7]: > 50 mg/L
IC50 (TZM-bl neutralization) [8]: 0.002 mg/L
IC80 (TZM-bl neutralization) [9]: > 50 mg/L
IC50 (TZM-bl neutralization) [10]: 0.044 mg/L
IC50 (TZM-bl neutralization) [11]: 0.013 mg/L
IC80 (TZM-bl neutralization) [12]: 34.6 mg/L
IC50 (TZM-bl neutralization) [13]: > 50 mg/L
IC50 (TZM-bl neutralization) [14]: 0.173 mg/L
IC50 (TZM-bl neutralization) [15]: > 50 mg/L
IC50 (TZM-bl neutralization) [16]: 0.058 mg/L
IC80 (TZM-bl neutralization) [17]: 1.99 mg/L
IC80 (TZM-bl neutralization) [18]: > 50 mg/L
IC50 (TZM-bl neutralization) [19]: 0.086 mg/L
IC50 (TZM-bl neutralization) [20]: 0.019 mg/L
IC80 (TZM-bl neutralization) [21]: 43.8 mg/L
IC50 (TZM-bl neutralization) [22]: > 50 mg/L
IC50 (TZM-bl neutralization) [23]: 0.061 mg/L

PGT121 (antibody)
IC50 in the TZM-bl neutralization assay [24]: 37.3 mg/L
IC50 in the TZM-bl neutralization assay [25]: 3.15 mg/L
IC80 (TZM-bl neutralization) [1]: 0.696 mg/L
IC80 (TZM-bl neutralization) [2]: 0.356 mg/L
IC80 (TZM-bl neutralization) [3]: > 50 mg/L
IC50 in the TZM-bl neutralization assay [26]: 4.29 mg/L
IC50 in the TZM-bl neutralization assay [27]: 0.696 mg/L
IC80 (TZM-bl neutralization) [4]: > 50 mg/L
IC50 in the TZM-bl neutralization assay [28]: 6.54 mg/L
IC80 (TZM-bl neutralization) [5]: 45.6 mg/L
IC50 in the TZM-bl neutralization assay [29]: 35.3 mg/L
IC50 in the TZM-bl neutralization assay [30]: 0.406 mg/L
IC50 in the TZM-bl neutralization assay [31]: 1.68 mg/L
IC50 in the TZM-bl neutralization assay [32]: 8.98 mg/L
IC50 in the TZM-bl neutralization assay [33]: > 50 mg/L
IC50 in the TZM-bl neutralization assay [34]: 24.6 mg/L
IC50 (TZM-bl neutralization) [7]: 0.086 mg/L
IC50 in the TZM-bl neutralization assay [35]: > 50 mg/L
IC50 in the TZM-bl neutralization assay [36]: 0.199 mg/L
IC50 in the TZM-bl neutralization assay [37]: 0.202 mg/L
IC80 (TZM-bl neutralization) [9]: > 50 mg/L
IC50 in the TZM-bl neutralization assay [38]: 0.088 mg/L
IC50 (TZM-bl neutralization) [10]: 0.085 mg/L
IC50 in the TZM-bl neutralization assay [39]: > 50 mg/L
IC80 (TZM-bl neutralization) [12]: > 50 mg/L
IC50 (TZM-bl neutralization) [13]: > 50 mg/L
IC50 (TZM-bl neutralization) [14]: 0.115 mg/L
IC50 in the TZM-bl neutralization assay [40]: > 50 mg/L
IC50 (TZM-bl neutralization) [15]: > 50 mg/L
IC50 in the TZM-bl neutralization assay [41]: 8.54 mg/L
IC50 in the TZM-bl neutralization assay [42]: 0.074 mg/L
IC50 (TZM-bl neutralization) [16]: 0.023 mg/L
IC50 in the TZM-bl neutralization assay [43]: > 50 mg/L
IC80 (TZM-bl neutralization) [17]: 0.559 mg/L
IC80 (TZM-bl neutralization) [18]: > 50 mg/L
IC50 (TZM-bl neutralization) [19]: 0.486 mg/L
IC50 in the TZM-bl neutralization assay [44]: 0.189 mg/L
IC50 in the TZM-bl neutralization assay [45]: 7.35 mg/L
IC50 in the TZM-bl neutralization assay [46]: 0.152 mg/L
IC80 (TZM-bl neutralization) [21]: 32.9 mg/L
IC50 (TZM-bl neutralization) [22]: > 50 mg/L
IC50 in the TZM-bl neutralization assay [47]: 6.01 mg/L

10-1074 (antibody)
IC50 in the TZM-bl neutralization assay [24]: > 50 mg/L
IC50 in the TZM-bl neutralization assay [25]: 2.37 mg/L
IC80 (TZM-bl neutralization) [1]: 0.563 mg/L
IC80 (TZM-bl neutralization) [2]: 0.398 mg/L
IC80 (TZM-bl neutralization) [3]: > 50 mg/L
IC50 in the TZM-bl neutralization assay [26]: > 50 mg/L
IC50 in the TZM-bl neutralization assay [27]: 0.563 mg/L
IC80 (TZM-bl neutralization) [4]: > 50 mg/L
IC50 in the TZM-bl neutralization assay [28]: > 50 mg/L
IC80 (TZM-bl neutralization) [5]: > 50 mg/L
IC80 (TZM-bl neutralization) [6]: 0.017 mg/L
IC50 in the TZM-bl neutralization assay [29]: 0.634 mg/L
IC50 in the TZM-bl neutralization assay [30]: 0.048 mg/L
IC50 in the TZM-bl neutralization assay [31]: 0.163 mg/L
IC50 in the TZM-bl neutralization assay [32]: 0.349 mg/L
IC50 in the TZM-bl neutralization assay [33]: 13.3 mg/L
IC50 in the TZM-bl neutralization assay [34]: 6.53 mg/L
IC50 (TZM-bl neutralization) [7]: > 50 mg/L
IC50 in the TZM-bl neutralization assay [35]: 0.968 mg/L
IC50 in the TZM-bl neutralization assay [36]: 0.297 mg/L
IC50 (TZM-bl neutralization) [8]: 0.003 mg/L
IC50 in the TZM-bl neutralization assay [37]: 0.475 mg/L
IC80 (TZM-bl neutralization) [9]: > 50 mg/L
IC50 in the TZM-bl neutralization assay [38]: 0.166 mg/L
IC50 (TZM-bl neutralization) [10]: 0.037 mg/L
IC50 (TZM-bl neutralization) [11]: 0.007 mg/L
IC50 in the TZM-bl neutralization assay [39]: 4.7 mg/L
IC80 (TZM-bl neutralization) [12]: 14.9 mg/L
IC50 (TZM-bl neutralization) [13]: > 50 mg/L
IC50 (TZM-bl neutralization) [14]: 0.121 mg/L
IC50 in the TZM-bl neutralization assay [40]: 18.3 mg/L
IC50 (TZM-bl neutralization) [15]: > 50 mg/L
IC50 in the TZM-bl neutralization assay [41]: 0.929 mg/L
IC50 in the TZM-bl neutralization assay [42]: > 50 mg/L
IC50 (TZM-bl neutralization) [16]: 0.047 mg/L
IC50 in the TZM-bl neutralization assay [43]: 14.9 mg/L
IC80 (TZM-bl neutralization) [17]: 1.2 mg/L
IC80 (TZM-bl neutralization) [18]: > 50 mg/L
IC50 (TZM-bl neutralization) [19]: 0.05 mg/L
IC50 in the TZM-bl neutralization assay [44]: 50 mg/L
IC50 (TZM-bl neutralization) [20]: 0.016 mg/L
IC50 in the TZM-bl neutralization assay [45]: 0.45 mg/L
IC50 in the TZM-bl neutralization assay [46]: 0.16 mg/L
IC80 (TZM-bl neutralization) [21]: 13.1 mg/L
IC50 (TZM-bl neutralization) [22]: > 50 mg/L
IC50 (TZM-bl neutralization) [23]: 0.03 mg/L
IC50 in the TZM-bl neutralization assay [47]: 2.11 mg/L
